Measured values reported in US20130251724A1 (GlaxoSmithKline, published 2013).
Where “and” joins values, the source holds several entries; their conditions need not be identical. Equal values may be shown once. Read-outs that look alike come from different tables or passages of the source.

Tests used:
Human OSM [1] = target: T1, Human OSM (human, UniProt P13725 26-221); assay: cell-based or functional assay
T1 sequence: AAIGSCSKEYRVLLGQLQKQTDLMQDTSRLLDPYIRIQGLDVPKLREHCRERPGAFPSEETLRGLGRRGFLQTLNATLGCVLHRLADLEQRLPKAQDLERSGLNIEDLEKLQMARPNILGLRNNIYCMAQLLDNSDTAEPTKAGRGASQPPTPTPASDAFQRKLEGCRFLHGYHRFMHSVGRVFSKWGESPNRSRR

Cynomolgus OSM [2] = target: T2, Cynomolgus OSM (cynomolgus, UniProt A0A2K5VPC6 26-221); assay: cell-based or functional assay
T2 sequence: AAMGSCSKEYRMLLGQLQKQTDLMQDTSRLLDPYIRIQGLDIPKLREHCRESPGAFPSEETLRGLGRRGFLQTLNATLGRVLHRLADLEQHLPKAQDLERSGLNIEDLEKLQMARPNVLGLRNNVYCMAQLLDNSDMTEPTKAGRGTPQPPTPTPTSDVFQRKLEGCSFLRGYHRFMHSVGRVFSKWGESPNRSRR

[3] = target: T3, Endogenous human OSM (neutrophil-derived) (human, UniProt P13725 26-221, limits assumed); assay: gp130 ELISA with endogenous neutrophil-derived human OSM
T3 construct: Native OSM generated from GM-CSF stimulation of healthy human neutrophils; also called native OSM; endogenous OSM
T3 sequence: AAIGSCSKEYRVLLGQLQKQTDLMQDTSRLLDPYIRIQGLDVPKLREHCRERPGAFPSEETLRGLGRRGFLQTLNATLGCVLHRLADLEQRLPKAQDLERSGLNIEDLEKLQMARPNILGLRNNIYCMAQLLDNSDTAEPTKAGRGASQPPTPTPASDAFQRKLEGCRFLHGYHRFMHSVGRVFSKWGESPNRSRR

Human OSM [4] = target: T1, Human OSM; assay: cell-based or functional assay; remark: listed apart in the source
Cynomolgus OSM [5] = target: T2, Cynomolgus OSM; assay: cell-based or functional assay; remark: listed apart in the source
Human OSM [6] = target: T1, Human OSM; assay: human gp130 ELISA, inhibition of OSM binding to gp130
Cynomolgus OSM [7] = target: T2, Cynomolgus OSM; assay: as above
[8] = target: T3, Endogenous human OSM …; assay: gp130 ELISA with endogenous neutrophil-derived human OSM; remark: listed apart in the source
Human OSM [9] = target: T1, Human OSM; assay: BIAcore kinetics
Cynomolgus OSM [10] = target: T2, Cynomolgus OSM; assay: BIAcore kinetics
Human OSM [11] = target: T1, Human OSM; assay: BIAcore kinetics, purified antibody
Cynomolgus OSM [12] = target: T2, Cynomolgus OSM; assay: BIAcore kinetics, purified antibody
Human OSM [13] = target: T1, Human OSM; assay: cell-based or functional assay; remark: listed apart in the source
Cynomolgus OSM [14] = target: T2, Cynomolgus OSM; assay: cell-based or functional assay; remark: listed apart in the source
Marmoset OSM = Marmoset OSM (marmoset); assay: cell-based or functional assay
Human OSM [15] = target: T1, Human OSM; assay: BIAcore kinetics, transfection supernatant
Human OSM [16] = target: T1, Human OSM; assay: BIAcore kinetics, purified antibody; remark: listed apart in the source
Cynomolgus OSM [17] = target: T2, Cynomolgus OSM; assay: BIAcore kinetics, purified antibody; remark: listed apart in the source
Human OSM [18] = target: T1, Human OSM; assay: BIAcore kinetics, purified antibody; remark: listed apart in the source
Human OSM [19] = target: T1, Human OSM; assay: direct ELISA, human OSM coated at 1 µg/ml, detection with anti-human IgG
Protocol: Both the 10G8 and 9G2 chimaeras successfully bound to human OSM, to a greater extent than 15E10chimera (15E10c) (FIG. 11). This was a direct ELISA where human OSM was coated at 1 μg/ml and bound antibodies detected using anti-human IgG.

B1: 10G8 chimaera (antibody, human IgG1, kappa, V domains shown)
VH: EMQLVESGEGLVEPGGSLKLSCAASGFTFSNYAMSWVRQTPEKSLEWVATISDGGSFTYYLDNVRGRFTISRDNAKNNLYLQMSHLKSDDTAMYYCARDVGHTTFWYFDVWGSGTLVTVSS
VL: DIVLTQSPVFLVVSLGQRATISCRASKSVSAAGYNFMHWYQQKPGQPPKVLIKYASNLESGVPARFSGSGSGTDFTLNIHPVEEEDAVTYYCLHSREFPFTFGGGTNLEIKR
notes: Mouse V regions on human gamma 1 wild type and human kappa constant regions; the entries called VH/VL domain (chimera) are full chains; also called 10G8 chimera; 10G8 Chimæra
- KB cell neutralisation assay, mean IC50 (Human OSM [1]): 0.022 µg/ml and 144 pM
- KB cell neutralisation assay, mean IC50 (Cynomolgus OSM [2]): 0.008 µg/ml and 100 pM
- IC50 [3]: 0.0091 µg/mL and 0.061 nM
- KB cell neutralisation assay, mean IC50 (Human OSM [4]): 0.021 µg/ml and 140 pM
- KB cell neutralisation assay, mean IC50 (Cynomolgus OSM [5]): 0.008 µg/ml and 53 pM
- IC50 (Human OSM [6]): 0.037 µg/mL and 0.247 nM
- IC50 (Cynomolgus OSM [7]): 0.016 µg/mL and 0.107 nM
- IC50 [8]: 0.009 µg/mL and 0.06 nM
- Kd (Human OSM [9]): 654 pM
- koff (Human OSM [9]): 0.000152 s⁻¹
- kon (Human OSM [9]): 233000 M⁻¹ s⁻¹
- Kd (Cynomolgus OSM [10]): 480 pM
- koff (Cynomolgus OSM [10]): 0.000114 s⁻¹
- kon (Cynomolgus OSM [10]): 237000 M⁻¹ s⁻¹
- Kd (Human OSM [11]): 184 pM
- koff (Human OSM [11]): 7.87e-05 s⁻¹
- kon (Human OSM [11]): 427000 M⁻¹ s⁻¹
- Kd (Cynomolgus OSM [12]): 266 pM
- koff (Cynomolgus OSM [12]): 6.63e-05 s⁻¹
- kon (Cynomolgus OSM [12]): 250000 M⁻¹ s⁻¹
- KB cell neutralisation assay, mean IC50 (Human OSM [13]): 0.0052 µg/ml and 35 pM
- KB cell neutralisation assay, mean IC50 (Cynomolgus OSM [14]): 0.0011 µg/ml and 7 pM
- KB cell neutralisation assay, mean IC50 (Marmoset OSM): 0.0271 µg/ml and 181 pM
- Kd (Human OSM [15]): 407 pM
- koff (Human OSM [15]): 0.000103 s⁻¹
- kon (Human OSM [15]): 252000 M⁻¹ s⁻¹
- Kd (Human OSM [16]): 518 pM
- koff (Human OSM [16]): 0.000125 s⁻¹
- kon (Human OSM [16]): 241000 M⁻¹ s⁻¹
- Kd (Cynomolgus OSM [17]): 394 pM
- koff (Cynomolgus OSM [17]): 9.95e-05 s⁻¹
- kon (Cynomolgus OSM [17]): 253000 M⁻¹ s⁻¹
- Kd (Human OSM [18]): 407 pM
- koff (Human OSM [18]): 0.000105 s⁻¹
- kon (Human OSM [18]): 257000 M⁻¹ s⁻¹
- EC50 (read off the curve) (Human OSM [19]): ~200 pM
